Values joined by “and” are separate entries in the source; they are usually repeats but may differ in a detail not shown here. Equal entries are not always repeated.
Columns and labels:
[1] = target: α-Synuclein preformed fibrils (α-Syn PFF) (mouse) (UniProt O55042); test: SPR
[2] = target: α-Synuclein preformed fibrils (α-Syn PFF) (mouse) (UniProt O55042); test: ELISA

Chain of ΔLRR hNOD2-Fc (Q9HC29 whole entry, stated change not applied, the tested form may be a part): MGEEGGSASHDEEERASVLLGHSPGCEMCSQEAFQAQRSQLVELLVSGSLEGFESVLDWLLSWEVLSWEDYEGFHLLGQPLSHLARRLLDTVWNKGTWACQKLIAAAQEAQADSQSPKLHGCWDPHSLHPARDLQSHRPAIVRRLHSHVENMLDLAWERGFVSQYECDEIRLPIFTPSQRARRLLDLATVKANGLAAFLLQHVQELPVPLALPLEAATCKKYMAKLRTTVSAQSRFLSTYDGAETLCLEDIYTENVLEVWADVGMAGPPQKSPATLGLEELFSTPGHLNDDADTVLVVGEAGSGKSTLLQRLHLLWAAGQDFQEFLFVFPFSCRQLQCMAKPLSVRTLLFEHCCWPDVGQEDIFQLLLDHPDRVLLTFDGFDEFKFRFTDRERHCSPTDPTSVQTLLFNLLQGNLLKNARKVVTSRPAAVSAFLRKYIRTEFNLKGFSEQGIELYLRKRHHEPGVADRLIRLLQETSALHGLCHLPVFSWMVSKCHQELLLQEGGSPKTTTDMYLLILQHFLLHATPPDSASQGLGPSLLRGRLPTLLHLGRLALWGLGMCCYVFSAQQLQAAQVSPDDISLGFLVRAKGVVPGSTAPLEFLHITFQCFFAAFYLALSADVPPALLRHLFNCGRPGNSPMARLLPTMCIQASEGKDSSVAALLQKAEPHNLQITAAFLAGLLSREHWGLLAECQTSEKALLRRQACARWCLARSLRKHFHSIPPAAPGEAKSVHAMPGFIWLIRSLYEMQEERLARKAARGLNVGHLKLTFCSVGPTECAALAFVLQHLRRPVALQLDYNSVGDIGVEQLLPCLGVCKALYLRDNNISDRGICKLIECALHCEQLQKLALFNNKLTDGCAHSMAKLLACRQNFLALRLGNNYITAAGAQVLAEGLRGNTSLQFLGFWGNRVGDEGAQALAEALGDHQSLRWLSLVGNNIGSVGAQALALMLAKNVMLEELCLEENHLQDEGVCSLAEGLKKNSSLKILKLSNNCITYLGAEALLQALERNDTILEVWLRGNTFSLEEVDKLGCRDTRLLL

Kd [1] | Kd [2] [nM] | Substance
807 nM and 1190 nM |  | FL hNOD2 with the Fc-tag removed by HRV 3C protease (from UniProt Q9HC29 1-1040) (natural protein)
 | 1200 | human IgG1 Fc-tagged human NOD2 full-length (FL hNOD2-Fc) (from UniProt Q9HC29 1-1040) (Fc fusion)
 | 2810 | ΔLRR hNOD2-Fc (from UniProt Q9HC29 1-1040) (Fc fusion)

Source: article doi:10.1101/2024.02.19.580982
